Our source for the pKd values is article PMC9482650, “Quantitative fragmentomics allow affinity mapping of interactomes” (Nature Communications, 2022).

Among the targets are MAGI1_4, Q96QZ7; MAGI1_6, Q96QZ7; PDLIM4, P50479; RIMS2, Q9UQ26; RIMS1, Q86UR5; PARD3B_3, Q8TEW8; MAGI3_6, Q5TCQ9; SCRIB_4, Q14160; AHNAK2, Q8IVF2.
Assay in all cases: holdup assay
Common to all, as to set-up: key: below the threshold = too weak to quantify, mostly under pKd 3.1 to 4
What all share (conditions): plain residues with an end cap or a label only (N-terminal biotin on a linker: ttds)

The next assay has as its target T1, PDZD2_4, O15018.
T1 sequence (O15018 723-823, limits assumed, looked up): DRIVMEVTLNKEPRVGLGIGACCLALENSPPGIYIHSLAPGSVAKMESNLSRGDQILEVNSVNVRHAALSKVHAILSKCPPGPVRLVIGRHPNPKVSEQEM

For a further assay, the target named is T2, PDLIM3, Q53GG5.
T2 sequence (Q53GG5 1-94, limits assumed, looked up): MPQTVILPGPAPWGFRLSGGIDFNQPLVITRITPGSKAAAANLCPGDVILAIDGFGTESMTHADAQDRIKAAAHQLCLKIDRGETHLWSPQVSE

The target in a further assay is T3, PDZD8, Q8NEN9.
T3 sequence (Q8NEN9 361-459, limits assumed, looked up): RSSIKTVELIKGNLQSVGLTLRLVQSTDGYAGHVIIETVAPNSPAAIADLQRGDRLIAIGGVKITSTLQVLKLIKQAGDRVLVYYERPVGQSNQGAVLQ

The target of another assay is T4, PDZD2_5, O15018.
T4 sequence (O15018 2617-2716, limits assumed, looked up): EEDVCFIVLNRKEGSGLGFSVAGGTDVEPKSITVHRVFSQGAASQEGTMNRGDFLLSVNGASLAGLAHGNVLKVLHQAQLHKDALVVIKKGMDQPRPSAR

For a further assay, the target named is T5, MPDZ_7, O75970.
T5 sequence (O75970 1146-1253, limits assumed, looked up): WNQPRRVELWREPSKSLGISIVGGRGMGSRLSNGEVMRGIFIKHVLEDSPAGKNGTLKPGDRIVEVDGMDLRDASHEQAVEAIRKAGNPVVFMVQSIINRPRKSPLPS

The target of a further assay is T6, USH1C_1, Q9Y6N9.
T6 sequence (Q9Y6N9 82-179, limits assumed, looked up): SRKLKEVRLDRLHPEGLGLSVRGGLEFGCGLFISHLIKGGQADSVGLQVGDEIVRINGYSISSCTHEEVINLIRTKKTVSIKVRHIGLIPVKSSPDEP

The target in a further assay is T7, MPP1, Q00013.
T7 sequence (Q00013 66-162, limits assumed, looked up): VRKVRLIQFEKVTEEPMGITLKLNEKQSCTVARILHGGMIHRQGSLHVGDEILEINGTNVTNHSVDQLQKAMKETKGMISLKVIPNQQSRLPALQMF

In another assay the target is T8, SIPA1L3, O60292.
T8 sequence (O60292 961-1052, limits assumed, looked up): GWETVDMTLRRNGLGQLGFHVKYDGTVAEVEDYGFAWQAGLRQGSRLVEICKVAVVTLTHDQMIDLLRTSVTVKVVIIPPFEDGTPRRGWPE

The target of another assay is T9, MPDZ_11, O75970.
T9 sequence (O75970 1720-1817, limits assumed, looked up): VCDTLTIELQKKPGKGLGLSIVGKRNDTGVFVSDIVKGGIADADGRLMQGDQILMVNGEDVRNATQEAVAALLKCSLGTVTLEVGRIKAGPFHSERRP

The target in a further assay is T10, SNTB2, Q13425.
T10 sequence (Q13425 110-208, limits assumed, looked up): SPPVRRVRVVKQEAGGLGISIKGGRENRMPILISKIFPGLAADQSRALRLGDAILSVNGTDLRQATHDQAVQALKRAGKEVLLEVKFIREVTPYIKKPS

Another assay deals with T11, SHANK2, Q9UPX8.
T11 sequence (Q9UPX8 621-730, limits assumed, looked up): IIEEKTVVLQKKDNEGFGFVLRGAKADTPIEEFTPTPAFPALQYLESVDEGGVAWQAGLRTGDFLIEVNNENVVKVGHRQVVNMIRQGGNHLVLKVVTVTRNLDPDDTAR

In a further assay the target is T12, PDZD7_2, Q9H5P4.
T12 sequence (Q9H5P4 205-303, limits assumed, looked up): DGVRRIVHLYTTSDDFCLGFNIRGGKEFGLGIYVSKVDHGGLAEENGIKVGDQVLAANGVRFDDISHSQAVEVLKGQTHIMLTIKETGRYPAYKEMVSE

For a further assay, the target named is T13, GIPC1, O14908.
T13 sequence (O14908 128-223, limits assumed, looked up): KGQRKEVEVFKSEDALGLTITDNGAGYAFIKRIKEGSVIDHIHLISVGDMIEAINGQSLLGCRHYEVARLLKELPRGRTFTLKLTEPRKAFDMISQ

The target of a further assay is T14, NHERF1_1, O14745.
T14 sequence (O14745 9-104, limits assumed, looked up): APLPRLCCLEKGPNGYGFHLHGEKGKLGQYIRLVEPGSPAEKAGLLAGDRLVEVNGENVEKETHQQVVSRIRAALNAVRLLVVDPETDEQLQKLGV

Chain of AHNAK2, Q8IVF2 (Q8IVF2 108-193): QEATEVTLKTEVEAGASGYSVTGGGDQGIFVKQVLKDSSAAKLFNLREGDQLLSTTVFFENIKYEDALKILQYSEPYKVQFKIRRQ
Chain of MAGI3_6, Q5TCQ9 (Q5TCQ9 1014-1103): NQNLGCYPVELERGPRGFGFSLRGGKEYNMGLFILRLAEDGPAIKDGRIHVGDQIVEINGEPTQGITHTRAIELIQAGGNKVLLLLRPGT
Chain of PDLIM4, P50479 (P50479 1-83): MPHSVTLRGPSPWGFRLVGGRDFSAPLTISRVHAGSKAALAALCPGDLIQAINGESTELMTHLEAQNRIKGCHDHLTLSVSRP
Chain of MAGI1_6, Q96QZ7 (Q96QZ7 1146-1238): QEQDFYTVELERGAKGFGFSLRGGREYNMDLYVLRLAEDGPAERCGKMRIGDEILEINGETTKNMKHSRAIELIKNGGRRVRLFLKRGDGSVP
Chain of PARD3B_3, Q8TEW8 (Q8TEW8 490-594): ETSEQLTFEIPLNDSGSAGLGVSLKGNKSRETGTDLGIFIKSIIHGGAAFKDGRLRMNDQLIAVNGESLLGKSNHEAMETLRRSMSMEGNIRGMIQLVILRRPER
Chain of SCRIB_4, Q14160 (Q14160 1095-1204): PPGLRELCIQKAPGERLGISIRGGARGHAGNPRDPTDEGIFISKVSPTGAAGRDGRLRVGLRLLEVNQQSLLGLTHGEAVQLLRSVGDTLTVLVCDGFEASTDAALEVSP
Chain of MAGI1_4, Q96QZ7 (Q96QZ7 other isoform, or with tags, fused parts or gaps): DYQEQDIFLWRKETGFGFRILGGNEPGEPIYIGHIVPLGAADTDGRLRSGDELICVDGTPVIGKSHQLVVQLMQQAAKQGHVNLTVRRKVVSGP
Chain of RIMS1, Q86UR5 (Q86UR5 584-692): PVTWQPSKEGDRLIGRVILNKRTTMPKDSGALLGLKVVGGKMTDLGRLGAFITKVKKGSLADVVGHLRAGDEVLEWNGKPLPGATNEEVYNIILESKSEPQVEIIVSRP
Chain of RIMS2, Q9UQ26 (Q9UQ26 637-758): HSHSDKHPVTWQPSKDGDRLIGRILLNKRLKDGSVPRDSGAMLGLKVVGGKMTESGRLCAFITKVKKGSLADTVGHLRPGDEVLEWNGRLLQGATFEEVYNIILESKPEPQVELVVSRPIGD

Turning to NYWPGKETQL [SLCO1C1, Q9NYB5], the pKd (usually the negative decadic logarithm of the Kd, by convention in mol/L) with PDZD2_4, O15018 is “below the threshold”; with MAGI1_4, Q96QZ7, “below the threshold”; with MAGI1_6, Q96QZ7, “below the threshold”; with PDLIM3, Q53GG5 it was “below the threshold”; with PDZD8, Q8NEN9, “below the threshold”; in the assay with PDLIM4, P50479 it was “below the threshold”. For the same molecule, the pKd result with RIMS2, Q9UQ26 is “below the threshold”; with PDZD2_5, O15018, “below the threshold”; in the assay with MPDZ_7, O75970 it was 5.2; with USH1C_1, Q9Y6N9, “below the threshold”; with RIMS1, Q86UR5 it was “below the threshold”; in the assay with PARD3B_3, Q8TEW8 it was “below the threshold”. Further, the pKd result in the assay with MPP1, Q00013 was “below the threshold”; with SIPA1L3, O60292 it was “below the threshold”; in the assay with MPDZ_11, O75970, “below the threshold”; with SNTB2, Q13425, 5.13; with MAGI3_6, Q5TCQ9, 4.36; with SHANK2, Q9UPX8 it was 4.64. Besides, the pKd entry with PDZD7_2, Q9H5P4 was “below the threshold”; with SCRIB_4, Q14160, 4.83; with AHNAK2, Q8IVF2, 4.41; in the assay with GIPC1, O14908, “below the threshold”; in the assay with NHERF1_1, O14745 it was “below the threshold”.

Regarding MERLRVETDV [ARHGEF16, Q5VV41], the negative-log Kd (pKd) entry with PDZD2_4, O15018 is “below the threshold”; in the assay with MAGI1_4, Q96QZ7, “below the threshold”; with MAGI1_6, Q96QZ7, 4.33; in the assay with PDLIM3, Q53GG5, “below the threshold”; with PDZD8, Q8NEN9, “below the threshold”; in the assay with PDLIM4, P50479, “below the threshold”. In addition, the pKd result with RIMS2, Q9UQ26 is recorded as “below the threshold”; with PDZD2_5, O15018, “below the threshold”; with MPDZ_7, O75970 it was “below the threshold”; in the assay with USH1C_1, Q9Y6N9, “below the threshold”; with RIMS1, Q86UR5, “below the threshold”; with PARD3B_3, Q8TEW8, “below the threshold”. The pKd with MPP1, Q00013 is 4.56; with SIPA1L3, O60292 it was “below the threshold”; in the assay with MPDZ_11, O75970 it was “below the threshold”; with SNTB2, Q13425, 4.42; with MAGI3_6, Q5TCQ9 it was “below the threshold”; with SHANK2, Q9UPX8 it was “below the threshold”. The pKd was 4.24 with PDZD7_2, Q9H5P4; “below the threshold” with SCRIB_4, Q14160; “below the threshold” with AHNAK2, Q8IVF2; 4.71 with GIPC1, O14908; “below the threshold” with NHERF1_1, O14745.

Regarding QPGTPTRTAV [MAP2K2, P36507], the pKd result with PDZD2_4, O15018 is reported as “below the threshold”; with MAGI1_4, Q96QZ7, “below the threshold”; with MAGI1_6, Q96QZ7, “below the threshold”; with PDLIM3, Q53GG5, “below the threshold”; in the assay with PDZD8, Q8NEN9 it was “below the threshold”; with PDLIM4, P50479 it was “below the threshold”. The pKd result with RIMS2, Q9UQ26 is recorded as “below the threshold”; with PDZD2_5, O15018, “below the threshold”; in the assay with MPDZ_7, O75970, “below the threshold”; in the assay with USH1C_1, Q9Y6N9, “below the threshold”; with RIMS1, Q86UR5, “below the threshold”; with PARD3B_3, Q8TEW8, “below the threshold”. The pKd with MPP1, Q00013 is 4.12; with SIPA1L3, O60292, “below the threshold”; with MPDZ_11, O75970 it was “below the threshold”; with SNTB2, Q13425, “below the threshold”; with MAGI3_6, Q5TCQ9 it was “below the threshold”; with SHANK2, Q9UPX8, “below the threshold”. Besides, the pKd entry was “below the threshold” with PDZD7_2, Q9H5P4; “below the threshold” with SCRIB_4, Q14160; “below the threshold” with AHNAK2, Q8IVF2; “below the threshold” with GIPC1, O14908; “below the threshold” in the assay with NHERF1_1, O14745.

For the molecule HIVEALETDV [PBK, Q96KB5], the pKd result in the assay with PDZD2_4, O15018 was “below the threshold”; with MAGI1_4, Q96QZ7, 4.34; in the assay with MAGI1_6, Q96QZ7 it was 4.91; in the assay with PDLIM3, Q53GG5, “below the threshold”; in the assay with PDZD8, Q8NEN9, “below the threshold”; with PDLIM4, P50479, “below the threshold”. The pKd entry with RIMS2, Q9UQ26 is given as “below the threshold”; in the assay with PDZD2_5, O15018 it was “below the threshold”; in the assay with MPDZ_7, O75970 it was “below the threshold”; with USH1C_1, Q9Y6N9, “below the threshold”; in the assay with RIMS1, Q86UR5, “below the threshold”; in the assay with PARD3B_3, Q8TEW8, “below the threshold”. Besides, the pKd result with MPP1, Q00013 is “below the threshold”; in the assay with SIPA1L3, O60292, “below the threshold”; with MPDZ_11, O75970 it was “below the threshold”; in the assay with SNTB2, Q13425, 4.87; with MAGI3_6, Q5TCQ9, 4.62; with SHANK2, Q9UPX8, “below the threshold”. The pKd entry was “below the threshold” with PDZD7_2, Q9H5P4; “below the threshold” in the assay with SCRIB_4, Q14160; “below the threshold” in the assay with AHNAK2, Q8IVF2; 5.37 in the assay with GIPC1, O14908; “below the threshold” with NHERF1_1, O14745.
